Laboratory results reported in paper PMC10397247.
Blank lines part the entries; values can stand above or below the binder they belong to.

What was measured:
Assay in all cases: two-hybrid library CCmax;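 note: natural log of median RNA to DNA barcode read ratio; higher means stronger binding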
4H347-AA = biological target: T1, 4H347-AA; settings: mean of both orientations
T1 chain: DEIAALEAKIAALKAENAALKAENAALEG

4H3129-AA = biological target: T2, 4H3129-AA; settings: mean of both orientations
T2 chain: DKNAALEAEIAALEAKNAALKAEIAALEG

4H483-AA = biological target: T3, 4H483-AA; settings: mean of both orientations
T3 chain: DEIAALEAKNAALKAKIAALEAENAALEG

4H2732-AA = biological target: T4, 4H2732-AA; settings: mean of both orientations
T4 chain: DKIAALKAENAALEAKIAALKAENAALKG

4H376-AA = biological target: T5, 4H376-AA; settings: mean of both orientations
T5 chain: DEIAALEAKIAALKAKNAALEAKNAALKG

4H2621-AA = biological target: T6, 4H2621-AA; settings: mean of both orientations
T6 chain: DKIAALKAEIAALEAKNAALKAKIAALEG

4H2699-AA = biological target: T7, 4H2699-AA; settings: mean of both orientations
T7 chain: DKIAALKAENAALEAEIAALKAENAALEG

4H2504-AA = biological target: T8, 4H2504-AA; settings: mean of both orientations
T8 chain: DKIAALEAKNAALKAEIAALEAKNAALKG

4H3001-AA = biological target: T9, 4H3001-AA; settings: mean of both orientations
T9 chain: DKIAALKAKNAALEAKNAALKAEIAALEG

4H3112-AA = biological target: T10, 4H3112-AA; settings: mean of both orientations
T10 chain: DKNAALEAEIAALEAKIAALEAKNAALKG

4H317-AA = biological target: T11, 4H317-AA; settings: mean of both orientations
T11 chain: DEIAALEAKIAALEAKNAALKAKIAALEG

4H780-AA = biological target: T12, 4H780-AA; settings: mean of both orientations
T12 chain: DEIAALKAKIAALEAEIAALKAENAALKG

4H2944-AA = biological target: T13, 4H2944-AA; settings: mean of both orientations
T13 chain: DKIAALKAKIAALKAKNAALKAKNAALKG

4H993-AA = biological target: T14, 4H993-AA; settings: mean of both orientations
T14 chain: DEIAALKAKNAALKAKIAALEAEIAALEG

4H48-AA = biological target: T15, 4H48-AA; settings: mean of both orientations
T15 chain: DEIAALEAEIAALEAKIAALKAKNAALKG

4H2883-AA = biological target: T16, 4H2883-AA; settings: mean of both orientations
T16 chain: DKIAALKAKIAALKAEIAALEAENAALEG

4H454-AA = biological target: T17, 4H454-AA; settings: mean of both orientations
T17 chain: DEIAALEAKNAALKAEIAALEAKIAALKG

4H2165-AA = biological target: T18, 4H2165-AA
T18 chain: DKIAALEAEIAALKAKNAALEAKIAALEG

4H3427-AA = biological target: T19, 4H3427-AA; settings: mean of both orientations
T19 chain: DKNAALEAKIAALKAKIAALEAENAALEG

4H2343-AA = biological target: T20, 4H2343-AA; settings: mean of both orientations
T20 chain: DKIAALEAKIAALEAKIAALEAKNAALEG

4H1913-AA = biological target: T21, 4H1913-AA; settings: mean of both orientations
T21 chain: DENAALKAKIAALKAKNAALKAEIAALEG

4H1864-AA = biological target: T22, 4H1864-AA; settings: mean of both orientations
T22 chain: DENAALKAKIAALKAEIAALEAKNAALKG

O6-AA = biological target: T23, O6-AA; settings: mean of both orientations
T23 chain: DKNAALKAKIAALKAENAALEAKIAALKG

4H3588-AA = biological target: T24, 4H3588-AA; settings: mean of both orientations
T24 chain: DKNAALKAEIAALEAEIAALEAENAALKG

4H1845-AA = biological target: T25, 4H1845-AA; settings: mean of both orientations
T25 chain: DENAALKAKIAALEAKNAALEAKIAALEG

4H1597-AA = biological target: T26, 4H1597-AA; settings: mean of both orientations
T26 chain: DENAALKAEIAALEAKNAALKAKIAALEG

4H2907-AA = biological target: T27, 4H2907-AA; settings: mean of both orientations
T27 chain: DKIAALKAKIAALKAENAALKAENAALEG

4H3162-AA = biological target: T28, 4H3162-AA; settings: mean of both orientations
T28 chain: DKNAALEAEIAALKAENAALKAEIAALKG

4H1388-AA = biological target: T29, 4H1388-AA; settings: mean of both orientations
T29 chain: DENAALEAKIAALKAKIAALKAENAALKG

4H2198-AA = biological target: T30, 4H2198-AA; settings: mean of both orientations
T30 chain: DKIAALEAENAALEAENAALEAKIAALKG

4H3133-AA = biological target: T31, 4H3133-AA; settings: mean of both orientations
T31 chain: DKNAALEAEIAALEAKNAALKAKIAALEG

4H1392-AA = biological target: T32, 4H1392-AA; settings: mean of both orientations
T32 chain: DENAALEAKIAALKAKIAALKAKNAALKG

4H3905-AA = biological target: T33, 4H3905-AA; settings: mean of both orientations
T33 chain: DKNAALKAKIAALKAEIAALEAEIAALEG

B2: 4H2165-AA (peptide)
chain: DKIAALEAEIAALKAKNAALEAKIAALEG
interaction score (4H3112-AA): -0.868 | interaction score (4H347-AA): -1.3 | interaction score (4H317-AA): 0.575 | interaction score (4H780-AA): -1.4 | interaction score (4H2944-AA): -1.53 | interaction score (4H993-AA): 0.0167 | interaction score (4H48-AA): -1.31 | interaction score (4H2732-AA): -1.36 | interaction score (4H2883-AA): -1.67 | interaction score (4H454-AA): -0.571 | interaction score (4H2165-AA): 1.41 | interaction score (4H3427-AA): -1.3 | interaction score (4H2343-AA): -1.25 | interaction score (4H3001-AA): -1.67

B3: 4H1064-AA (peptide)
chain: DENAALEAEIAALEAKIAALEAKNAALKG
interaction score (4H1913-AA): -0.972 | interaction score (4H3129-AA): -1.71 | interaction score (4H483-AA): -0.857 | interaction score (4H2621-AA): -1.07 | interaction score (4H2699-AA): -1.48

B7: 4H1350-AA (peptide)
chain: DENAALEAKIAALKAEIAALEAKIAALKG
interaction score (4H1392-AA): -0.186 | interaction score (4H3905-AA): 1.9

Other lines, results leading:

interaction score (4H347-AA): 0.274 | interaction score (4H3129-AA): -2.01 | interaction score (4H483-AA): -1.76 | interaction score (4H2732-AA): -0.302 | interaction score (4H376-AA): -1.45 | interaction score (4H2621-AA): -1.28 | interaction score (4H2699-AA): -1.1 | interaction score (4H2504-AA): -1.35 | interaction score (4H3001-AA): -1.12
B1: 4H249-AA (peptide)
chain: DEIAALEAENAALKAKNAALKAEIAALEG

interaction score (4H1864-AA): 0.435 | interaction score (O6-AA): -0.729
B4: 4H171-AA (peptide)
chain: DEIAALEAENAALEAKIAALKAENAALEG

interaction score (4H347-AA): -1.66 | interaction score (4H1864-AA): -1.36 | interaction score (4H376-AA): -1.87 | interaction score (4H2504-AA): -1.49 | interaction score (4H3001-AA): -2.01
B5: 4H1626-AA (peptide)
chain: DENAALKAEIAALKAENAALKAEIAALKG

interaction score (4H3588-AA): -1.22 | interaction score (4H1864-AA): -1.48 | interaction score (4H1845-AA): -0.784 | interaction score (4H1597-AA): 0.746 | interaction score (4H2907-AA): 1.34 | interaction score (4H3162-AA): -0.508 | interaction score (4H1388-AA): -1.2 | interaction score (4H2198-AA): -0.878 | interaction score (4H3133-AA): 0.253
B6: 4H1310-AA (peptide)
chain: DENAALEAKIAALEAENAALKAKIAALKG
